These results are taken from publication PMC10163920 (European journal of cell biology, 2022).

What all share (test): fluorescence polarisation
(In general: Fluorescence polarisation rises when a labelled molecule tumbles more slowly, as on binding a larger partner.)

Assay [1] addresses Rabbit skeletal muscle actin (unlabeled actin monomers) (rabbit) (UniProt P68135).
The target in the next assay is profilin-1 (wild-type) (UniProt P07737 1-140).
Assay [2] concerns the target profilin-1 G118V (ALS-associated variant) (UniProt P07737 1-140, G118V).
Assay [3] has as its target profilin-1 Q139L (ALS-associated variant) (UniProt P07737 1-140, Q139L).
Assay [4] concerns the target profilin-1 A20T (ALS-associated variant) (UniProt P07737 1-140, A20T).
Assay [5] deals with profilin-1 T109M (ALS-associated variant) (UniProt P07737 1-140, T109M).
For assay [6], the target named is profilin-1 R136W (ALS-associated variant) (UniProt P07737 1-140, R136W).
The target of assay [7] is profilin-1 M114T (ALS-associated variant) (UniProt P07737 1-140, M114T).
Assay [8] addresses profilin-1 E117G (ALS-associated variant) (UniProt P07737 1-140, E117G).
The target of assay [9] is profilin-1 C71G (ALS-associated variant) (UniProt P07737 1-140, C71G).
Assay [10] concerns the target profilin-1 H120E (actin-binding impaired control) (UniProt P07737 1-140, H120E).

Ends that are not written are not given here.

Sequence of profilin-1 (wild-type) (UniProt P07737 1-140) (P07737 whole entry): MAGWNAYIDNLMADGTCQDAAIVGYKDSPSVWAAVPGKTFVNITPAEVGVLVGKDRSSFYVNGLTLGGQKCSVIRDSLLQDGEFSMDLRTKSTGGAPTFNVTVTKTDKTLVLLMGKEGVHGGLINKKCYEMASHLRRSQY
Sequence of profilin-1 (wild-type) (from UniProt P07737 1-140) (natural protein; other documents disagree on this pair) (P07737 whole entry): as above
Sequence of profilin-1 T109M (ALS-associated variant) (P07737 whole entry T109M): as the sequence (P07737 whole entry) above, with T109M counted along it
Sequence of profilin-1 M114T (ALS-associated variant) (P07737 whole entry M114T): as the sequence (P07737 whole entry) above, with M114T counted along it
Sequence of profilin-1 R136W (ALS-associated variant) (P07737 whole entry R136W): as the sequence (P07737 whole entry) above, with R136W counted along it
Sequence of profilin-1 H120E (actin-binding impaired control) (P07737 whole entry H120E): as the sequence (P07737 whole entry) above, with H120E counted along it
Sequence of profilin-1 Q139L (ALS-associated variant) (P07737 whole entry Q139L): as the sequence (P07737 whole entry) above, with Q139L counted along it
Sequence of profilin-1 A20T (ALS-associated variant) (P07737 whole entry A20T): as the sequence (P07737 whole entry) above, with A20T counted along it
Sequence of profilin-1 G118V (ALS-associated variant) (P07737 whole entry G118V): as the sequence (P07737 whole entry) above, with G118V counted along it
Sequence of profilin-1 C71G (ALS-associated variant) (P07737 whole entry C71G): as the sequence (P07737 whole entry) above, with C71G counted along it
Sequence of profilin-1 E117G (ALS-associated variant) (P07737 whole entry E117G): as the sequence (P07737 whole entry) above, with E117G counted along it

The Kd is a measure of binding affinity in units of concentration. The low end stands for tighter binding, the high end for weaker binding. “profilin-1 (wild-type) (from UniProt P07737 1-140) (natural protein; other documents disagree on this pair)” had a Kd in assay [1] of 0.0996 µM.
On the same count and under the same terms, to “profilin-1 R88E (actin-binding impaired control) (from UniProt P07737 1-140) (natural protein)” belongs 3.72 µM.
On to IPPPPPLPGVASIPPPPPLPG (also: FITC, position not given here) [FITC-mDia1-derived poly-L-proline (PLP) peptide], for which the Kd came out at 2.71 µM with profilin-1 (wild-type); 2.09 µM in assay [2]; 3.47 µM in assay [3]; 1.65 µM in assay [4]; 2.04 µM in assay [7]. The binding result in [5], in assay [6], in assay [8], in assay [9] and in assay [10] was “binds” each time.
